Here are results for two molecules from patent publication US20260103529A1, “Amino Acid Sequences Directed Against the Melanocortin 4 Receptor and Polypeptides Comprising the Same for the Treatment of MC4R-Related Diseases and Disorders” (Confo Therapeutics N.V., priority 2022, published 2026).

This test concerns the target human wild type MC4R (Homo sapiens, UniProt P32245). The experiment in a line: cAMP signaling assay (Lance Ultra HTRF). The test is classed as cell-based. More on the design: double Twin Strep tag; expressed in transfected cells; host or cells: HEK293. The conditions noted are these: purified nanobodies, human MC4R-overexpressing HEK293 cells, read-out: potencies, MC4R-mediated dose-dependent cAMP accumulation. How it is done: To confirm MC4R activation, dose-dependent nanobody-induced cAMP signaling was assessed (Lance Ultra HTRF). […] Binding of pN162 to the human melanocortin receptor subtypes MC1R, MC2R, MC3R, MC4R or MC5R transiently expressed as Flag-tagged receptors in HEK293T cells was assessed by flow cytometry.

Sequence of human wild type MC4R (P32245 whole entry): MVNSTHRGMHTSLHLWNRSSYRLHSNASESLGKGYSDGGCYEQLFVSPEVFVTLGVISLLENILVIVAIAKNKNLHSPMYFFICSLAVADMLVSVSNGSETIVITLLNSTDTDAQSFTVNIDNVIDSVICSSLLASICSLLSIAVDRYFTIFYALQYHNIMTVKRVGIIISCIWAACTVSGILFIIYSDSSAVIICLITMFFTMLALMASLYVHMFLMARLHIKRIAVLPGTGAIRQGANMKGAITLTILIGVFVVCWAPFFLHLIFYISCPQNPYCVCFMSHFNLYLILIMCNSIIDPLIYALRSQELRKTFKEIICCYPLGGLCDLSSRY

B1: pN161: agonistic anti-MC4R VHH, SEQ ID NO: 314 (protein)
VHH: QVQLVESGGGLVQAGGSLRLSCAASGSISRTNGMGWYRQAPGKQRELVAAITTGGSTNYANSAKGRFTISRDNAKNTVYLQMNSLKPEDTAVYYCNARYGSSSFRWGDFEVWGQGTQVTVSS
modifications: PN0161
In the case of B1, the EC50 turned out to be 393 nM.

B2: pN152: agonistic anti-MC4R VHH, SEQ ID NO: 183 (protein)
VHH: QVQLVESGGGLVQPGGSLKLSCAASGSISSKSDWGWYRQAPGKERELVAQITSGGNLKYASAVTGRFTISRDNAKNTVNLLMSRLKPEDTAIYFCNARTWRLVRYYDYWGQGTQVTVSS
modifications: pN0152
B2: the EC50 amounted to 0.7 nM.
